Laboratory results taken from US20230176070A1 (published 2023).

Biological target: glutathione S-transferase (UniProt P08515 1-218 = GST)
Assay: SPR

glutathione S-transferase, sequence (P08515 whole entry): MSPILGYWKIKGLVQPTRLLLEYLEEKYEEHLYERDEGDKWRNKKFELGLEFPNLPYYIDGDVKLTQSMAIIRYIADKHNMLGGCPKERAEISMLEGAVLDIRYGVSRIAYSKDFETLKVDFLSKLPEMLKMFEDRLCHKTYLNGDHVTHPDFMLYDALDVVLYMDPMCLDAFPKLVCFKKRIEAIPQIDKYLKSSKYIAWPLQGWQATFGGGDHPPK

B1: G47 (VHH)
VHH: QVQLVESGGGLVQAGGSLRLSCAASERIFSNYAMGWFRQAPGKEREFVASIRGSGSQTSYADSVKGRFTISRDGAKDTVDLQMNSLKPEDTAVYYCSAKKYCGSTYNRAEGYDYWGQGTQVTVSS
  Kd: 17.6 nM
